Reference: patent US20260049138A1 (Chugai, published 2026)
Numbering of substitutions follows the chain as printed. Numbers in names are those of the source.

B1: CE115HA000 I51D one-arm antibody (antibody, human IgG1, kappa, L234A L235A, N297A, name in Kabat numbering)
heavy: QVQLVESGGGVVQPGRSLRLSCAASGFTFSNAWMHWVRQAPGKGLEWVAQDKAKSNNYATYYAESVKGRFTISRDDSKNSLYLQMNSLKTEDTAVYYCRYVHYGAYYGVDAWGQGTTVTVSSASTKGPSVFPLAPSSKSTSGGTAALGCLVKDYFPEPVTVSWNSGALTSGVHTFPAVLQSSGLYSLSSVVTVPSSSLGTQTYICNVNHKPSNTKVDKKVEPKSCDKTHTCPPCPAPEAAGGPSVFLFPPKPKDTLMISRTPEVTCVVVDVSHEDPEVKFNWYVDGVEVHNAKTKPREEQYASTYRVVSVLTVLHQDWLNGKEYKCKVSNKALPAPIEKTISKAKGQPREPQVYTLPPSRCELTKNQVSLSCAVKGFYPSDIAVEWESNGQPENNYKTTPPVLDSDGSFFLVSKLTVDKSRWQQGNVFSCSVMHEALHNHYTQKSLSLSPDYKDDDDK
chain: EPKSSDKTHTCPPCPAPELLGGPSVFLFPPKPKDTLMISRTPEVTCVVVDVSHEDPEVKFNWYVDGVEVHNAKTKPREEQYNSTYRVVSVLTVLHQDWLNGKEYKCKVSNKALPAPIEKTISKAKGQPREPQVCTLPPSRDELTKNQVSLWCLVKGFYPSDIAVEWESNGQPENNYKTTPPVLDSDGSFFLYSKLTVDKSRWQQGNVFSCSVMHEALHNRYTQKSLSLSP
light: DIVMTQSPLSLPVTPGEPASISCRSSQSLVHSNRNTYLHWYQQKPGQAPRLLIYKVSNRFSGVPDRFSGSGSGTDFTLKISRVEAEDVGVYYCGQGTQVPYTFGQGTKLEIKRTVAAPSVFIFPPSDEQLKSGTASVVCLLNNFYPREAKVQWKVDNALQSGNSQESVTEQDSKDSTYSLSSTLTLSKADYEKHKVYACEVTHQGLSSPVTKSFNRGEC
B2: CE115HA000 K52W one-arm antibody (antibody, human IgG1, kappa, L234A L235A, N297A, name in Kabat numbering)
heavy: B1 heavy with D51I, K52W
chain: B1 chain
light: B1 light
B3: CE115HA000 K64Q one-arm antibody (antibody, human IgG1, kappa, L234A L235A, N297A, name in Kabat numbering)
heavy: B1 heavy with D51I, K67Q
chain: B1 chain
light: B1 light
B4: CE115HA000 K52E one-arm antibody (antibody, human IgG1, kappa, L234A L235A, N297A, name in Kabat numbering)
heavy: B1 heavy with D51I, K52E
chain: B1 chain
light: B1 light
B5: CE115HA000 K52bR one-arm antibody (antibody, human IgG1, kappa, L234A L235A, N297A, name in Kabat numbering)
heavy: B1 heavy with D51I, K54R
chain: B1 chain
light: B1 light
B6: CE115HA000 K52R one-arm antibody (antibody, human IgG1, kappa, L234A L235A, N297A, name in Kabat numbering)
heavy: B1 heavy with D51I, K52R
chain: B1 chain
light: B1 light
B7: CE115HA000 N31A one-arm antibody (antibody, human IgG1, kappa, L234A L235A, N297A, name in Kabat numbering)
heavy: B1 heavy with N31A, D51I
chain: B1 chain
light: B1 light
notes: One-arm antibody: altered VH-pE22Hh, Kn010G3, GLS3000-kappa; The same holds for m64 to m321
B8: CE115HA000 K75R one-arm antibody (antibody, human IgG1, kappa, L234A L235A, N297A, name in Kabat numbering)
heavy: B1 heavy with D51I, K78R
chain: B1 chain
light: B1 light
B9: CE115HA000 I51E one-arm antibody (antibody, human IgG1, kappa, L234A L235A, N297A, name in Kabat numbering)
heavy: B1 heavy with D51E
chain: B1 chain
light: B1 light
B10: CE115HA000 K64D one-arm antibody (antibody, human IgG1, kappa, L234A L235A, N297A, name in Kabat numbering)
heavy: B1 heavy with D51I, K67D
chain: B1 chain
light: B1 light
B11: CE115HA000 K52bA one-arm antibody (antibody, human IgG1, kappa, L234A L235A, N297A, name in Kabat numbering)
heavy: B1 heavy with D51I, K54A
chain: B1 chain
light: B1 light
B12: CE115HA000 L78I one-arm antibody (antibody, human IgG1, kappa, L234A L235A, N297A, name in Kabat numbering)
heavy: B1 heavy with D51I, L81I
chain: B1 chain
light: B1 light
B13: CE115HA000 K52S one-arm antibody (antibody, human IgG1, kappa, L234A L235A, N297A, name in Kabat numbering)
heavy: B1 heavy with D51I, K52S
chain: B1 chain
light: B1 light
B14: CE115HA000 K64A one-arm antibody (antibody, human IgG1, kappa, L234A L235A, N297A, name in Kabat numbering)
heavy: B1 heavy with D51I, K67A
chain: B1 chain
light: B1 light
B15: CE115HA000 K52F one-arm antibody (antibody, human IgG1, kappa, L234A L235A, N297A, name in Kabat numbering)
heavy: B1 heavy with D51I, K52F
chain: B1 chain
light: B1 light
B16: CE115HA000 K52N one-arm antibody (antibody, human IgG1, kappa, L234A L235A, N297A, name in Kabat numbering)
heavy: B1 heavy with D51I, K52N
chain: B1 chain
light: B1 light
B17: CE115HA000 K43E one-arm antibody (antibody, human IgG1, kappa, L234A L235A, N297A, name in Kabat numbering)
heavy: B1 heavy with K43E, D51I
chain: B1 chain
light: B1 light
B18: CE115HA000 K64S one-arm antibody (antibody, human IgG1, kappa, L234A L235A, N297A, name in Kabat numbering)
heavy: B1 heavy with D51I, K67S
chain: B1 chain
light: B1 light
B19: CE115HA000 K75T one-arm antibody (antibody, human IgG1, kappa, L234A L235A, N297A, name in Kabat numbering)
heavy: B1 heavy with D51I, K78T
chain: B1 chain
light: B1 light
B20: CE115HA000 K64E one-arm antibody (antibody, human IgG1, kappa, L234A L235A, N297A, name in Kabat numbering)
heavy: B1 heavy with D51I, K67E
chain: B1 chain
light: B1 light
B21: CE115HA000 K52H one-arm antibody (antibody, human IgG1, kappa, L234A L235A, N297A, name in Kabat numbering)
heavy: B1 heavy with D51I, K52H
chain: B1 chain
light: B1 light
B22: CE115HA000 K52bQ one-arm antibody (antibody, human IgG1, kappa, L234A L235A, N297A, name in Kabat numbering)
heavy: B1 heavy with D51I, K54Q
chain: B1 chain
light: B1 light
B23: CE115HA000 K52bY one-arm antibody (antibody, human IgG1, kappa, L234A L235A, N297A, name in Kabat numbering)
heavy: B1 heavy with D51I, K54Y
chain: B1 chain
light: B1 light
B24: CE115HA000 K52I one-arm antibody (antibody, human IgG1, kappa, L234A L235A, N297A, name in Kabat numbering)
heavy: B1 heavy with D51I, K52I
chain: B1 chain
light: B1 light
B25: CE115HA000 K52bD one-arm antibody (antibody, human IgG1, kappa, L234A L235A, N297A, name in Kabat numbering)
heavy: B1 heavy with D51I, K54D
chain: B1 chain
light: B1 light
B26: CE115HA000 K52bS one-arm antibody (antibody, human IgG1, kappa, L234A L235A, N297A, name in Kabat numbering)
heavy: B1 heavy with D51I, K54S
chain: B1 chain
light: B1 light
B27: CE115HA000 K52bN one-arm antibody (antibody, human IgG1, kappa, L234A L235A, N297A, name in Kabat numbering)
heavy: B1 heavy with D51I, K54N
chain: B1 chain
light: B1 light
B28: CE115HA000 K43Q one-arm antibody (antibody, human IgG1, kappa, L234A L235A, N297A, name in Kabat numbering)
heavy: B1 heavy with K43Q, D51I
chain: B1 chain
light: B1 light
B29: CE115HA000 K52D one-arm antibody (antibody, human IgG1, kappa, L234A L235A, N297A, name in Kabat numbering)
heavy: B1 heavy with D51I, K52D
chain: B1 chain
light: B1 light
B30: CE115HA000 K52Y one-arm antibody (antibody, human IgG1, kappa, L234A L235A, N297A, name in Kabat numbering)
heavy: B1 heavy with D51I, K52Y
chain: B1 chain
light: B1 light
B31: CE115HA000 K52bL one-arm antibody (antibody, human IgG1, kappa, L234A L235A, N297A, name in Kabat numbering)
heavy: B1 heavy with D51I, K54L
chain: B1 chain
light: B1 light

target: T1, CD3ε homodimer protein (human, UniProt P07766 23-126, limits assumed, sulfo-tag or biotin label in the ECL assays; amine-coupled to the chip in SPR); test: SPR Biacore T200; CD3ε homodimer on CM4 chip;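 note: Single-residue variant antibodies injected as analyte over CD3ε homodimer immobilized by amine coupling, run at 25 °C in HBS-EP+ buffer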
T1 construct: also called human CD3ε homodimer protein; CD3 (CD3ε)
T1 sequence (P07766 23-126 limits assumed): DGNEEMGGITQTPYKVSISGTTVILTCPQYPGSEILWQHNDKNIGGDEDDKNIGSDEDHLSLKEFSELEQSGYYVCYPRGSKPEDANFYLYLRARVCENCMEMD

Going from B1 to B2, the “ratio of amounts bound Z=Y/X (altered form / CE115HA000)” value falls from 0.29 to 0.22.

Going from B3 to B4, the “ratio of amounts bound Z=Y/X (altered form / CE115HA000)” value falls from 0.89 to 0.26.

Compared with B5, B6 is lower in “ratio of amounts bound Z=Y/X (altered form / CE115HA000)” value: 1.11 for the first, 0.91 for the second.

Compared with B7, B8 is higher in “ratio of amounts bound Z=Y/X (altered form / CE115HA000)” value: 0.5 for the first, 1.01 for the second.

First: B9
Second: B10
The “ratio of amounts bound Z=Y/X (altered form / CE115HA000)” value of the first is lower: 0.55 for the first, 0.72 for the second.

Going from B11 to B12, the “ratio of amounts bound Z=Y/X (altered form / CE115HA000)” value rises from 0.67 to 1.34.

First: B13
Second: B14
The “ratio of amounts bound Z=Y/X (altered form / CE115HA000)” value of the first is lower: 0.28 for the first, 0.82 for the second.

First: B15
Second: B16
The “ratio of amounts bound Z=Y/X (altered form / CE115HA000)” value of the first is lower: 0.17 for the first, 0.34 for the second.

Compared with B17, B18 is lower in “ratio of amounts bound Z=Y/X (altered form / CE115HA000)” value: 0.9 for the first, 0.84 for the second.

First: B19
Second: B20
The “ratio of amounts bound Z=Y/X (altered form / CE115HA000)” value of the first is higher: 0.84 for the first, 0.74 for the second.

First: B21
Second: B22
The “ratio of amounts bound Z=Y/X (altered form / CE115HA000)” value of the first is lower: 0.22 for the first, 0.6 for the second.

First: B23
Second: B24
The “ratio of amounts bound Z=Y/X (altered form / CE115HA000)” value of the first is higher: 0.74 for the first, 0.33 for the second.

First: B25
Second: B26
The “ratio of amounts bound Z=Y/X (altered form / CE115HA000)” value of the first is lower: 0.27 for the first, 0.68 for the second.

Compared with B27, B28 is higher in “ratio of amounts bound Z=Y/X (altered form / CE115HA000)” value: 0.27 for the first, 0.99 for the second.

Compared with B29, B30 is lower in “ratio of amounts bound Z=Y/X (altered form / CE115HA000)” value: 0.25 for the first, 0.18 for the second.

In the case of B31, the “ratio of amounts bound Z=Y/X (altered form / CE115HA000)” value is reported as 0.61.
